Data published in FireProtDB (doi:10.1074/jbc.273.32.19982).

B1: DNA-binding protein HU wild type, P0A3H0 (protein)
chain: MNKTELINAVAETSGLSKKDATKAVDAVFDSITEALRKGDKVQLIGFGNFEVRERAARKGRNPQTGEEMEIPASKVPAFKPGKALKDAVK
B2: DNA-binding protein HU 1 wild type, P08821 (protein)
chain: MNKTELINAVAEASELSKKDATKAVDSVFDTILDALKNGDKIQLIGFGNFEVRERSARKGRNPQTGEEIEIPASKVPAFKPGKALKDAVAGK

Conditions: pH 7, Thermal, CD, Sodium phosphate 5 mM, NaCl 0.2 M, reversible: yes, whole UniProt chain shown

| Protein | Tm (Geobacillus stearothermophilus) [°C] | unfolding enthalpy (van 't Hoff) (Geobacillus stearothermophilus) [kcal/mol] | Tm (Bacillus subtilis (strain 168)) [°C] |
| --- | --- | --- | --- |
| B1 | 63.9 | 72.8 | – |
| B2 | – | – | 48.6 |
